B1: TOR1AIP2 (parent)
chain: AGQEGEDTLRRRLLAPEAGSHPQQ

Variants of: B1
Assay: protein stability index of a GFP-peptide fusion (GPS, HEK-293T) (PSI 1-6); higher = more stable
Conditions: c terminus: a fixed tail appended
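Also: lentivirally expressed fusions sorted by FACS into six bins by GFP to DsRed ratio, PSI derived from sequencing read proportions per bin multiplied by bin number.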

Protein stability index of substitutions, site by site:
G5: S 2.03 | Y 1.84 | I 2.72 | V 2.55 | F 1.83 | C 3.6 | N 3.27 | E 2.72 | M 1.97 | K 2.46 | R 2.46 | H 2.08 | Q 2.99 | A 2.44 | W 1.35 | D 3.43 | T 2.72 | P 2.91 | L 2.49
R11: N 4.6 | D 5.21 | C 3.77 | F 2.02 | V 3.27 | S 4.4 | L 2.85 | P 5.65 | Y 1.16 | K 2.81 | H 2.4 | W 2.12 | E 4.6 | Q 3.78 | M 2.22 | G 5.29 | I 2.85 | T 3.98
E6: P 2.88 | Y 2.5 | R 3.06 | M 2.33 | K 1.95 | Q 2.37 | T 2.08 | S 2.59 | H 2.32 | G 1.73 | A 2.25 | I 2.13 | W 2.63 | N 3.08 | L 1.94 | D 2.79 | V 2.53 | F 3.25
Q3: T 2.47 | S 2.31 | P 2.92 | R 1.09 | Y 1.37 | W 2.14 | V 2.27
E17: M 2.79 | R 4.68 | Y 2.44 | H 3.34 | K 3.86 | N 3.16 | Q 2.63 | T 4.53 | P 5.13 | S 4.34 | G 3.5 | F 3.31 | A 4.22 | V 4.57 | C 3.65 | D 2.2 | L 2.13 | I 4.11
L9: M 3.69 | F 3.61 | C 4.29 | S 5.06 | I 2.33 | Y 3.67 | W 2.41 | E 4.58 | N 4.61 | G 4.89 | D 4.17 | H 4.71 | K 3.87 | V 3.8 | P 4.27 | Q 4.56 | R 4.45 | A 4.4 | T 4.59
H21: N 2.69 | D 3.73 | G 2.47 | P 2.82 | M 1.88 | C 2.69 | I 2.96 | A 2.53 | E 1.73 | F 2.02 | K 2.58 | L 2.27
T8: L 2.28 | F 3.06 | E 2.79 | R 2.71 | Y 3.17 | G 2.93 | W 1.5 | K 3.24 | P 3.37 | A 2.41 | Q 2.81 | D 3.21 | I 2.17 | H 3.12 | C 2.42 | S 2.03 | M 2.34 | N 1.67 | V 3.16
R10: E 5.4 | I 4.62 | Q 5.08 | L 4.82 | Y 4.53 | N 5.29 | M 4.88 | F 4.51 | W 4.37 | K 5.06 | H 5.31 | V 4.26 | P 5.19 | T 5.17 | D 5.38 | C 5.64 | A 4.84 | G 5.17 | S 5.29
G19: C 2.15 | M 3 | K 1.86 | H 2.22 | Q 2.13 | E 2.15 | I 2.54 | L 1.72 | P 2.69 | T 2.58 | R 2.49 | F 1.86 | A 2.23 | V 2.37 | N 2.27 | Y 1.75 | W 1.31 | D 2.83
E4: V 2.79 | H 1.79 | M 2.05 | N 1.65 | R 1.29 | D 2.02 | F 1.79 | T 2.15 | I 1.74 | K 1.85 | W 2.35 | Q 2.17 | L 1.81 | P 1.61 | Y 1.72 | C 2.16 | S 2.31 | G 2.21
A18: D 3.62 | Q 3.35 | P 4.77 | M 2.08 | E 3.46 | W 2.21 | L 1.57 | H 3.03 | T 3.11 | K 3.5 | S 2.35 | R 2.87 | G 3.92 | C 2.48 | F 2.16 | I 1.9 | Y 1.43 | V 2.75 | N 4.09
S20: N 2.02 | I 2.08 | M 2.68 | R 2.28 | L 2.09 | T 2.1 | H 2.1 | E 2.91 | Y 2.18 | W 2.08 | P 2.53 | Q 2.35 | D 3.33 | K 1.97 | G 2.25 | F 1.73 | C 1.62 | V 1.73 | A 2.45
D7: G 2.12 | K 2.57 | V 1.76 | P 4.24 | M 1.88 | E 2.56 | N 1.97 | F 2.47 | H 2.73 | R 1.73 | Y 2.41 | Q 2.39 | L 2.73 | C 1.54 | S 2.04 | I 1.76 | T 3.15
R12: F 1.83 | G 4.97 | P 5.19 | L 2.56 | V 2.47 | Y 2.3 | E 4.75 | A 2.65 | N 3.89 | T 2.35 | I 1.93 | H 3.29 | Q 2.87 | K 3.55 | C 2.51 | S 3.03 | D 4.7 | M 1.8
L13: M 2.22 | D 4.91 | R 5.04 | E 5.53 | G 5.55 | S 5.22 | I 1.82 | F 3.32 | Q 5.15 | W 3.21 | Y 4.14 | H 4.82 | V 3.31 | T 5.03 | K 5.21 | A 3.81 | N 5.55 | C 3.48 | P 5.6
L14: V 5.37 | W 4.69 | N 5.56 | R 5.17 | D 5.59 | I 5.06 | H 5.5 | F 4.25 | T 5.58 | Q 5.68 | A 5.73 | P 5.93 | C 4.91 | G 5.21 | S 5.63 | K 5.51 | M 4.6 | E 5.37 | Y 4.5
P16: L 5.32 | Y 4.86 | N 5.24 | W 3.99 | F 4.52 | M 4.81 | G 5.51 | D 5.74 | S 5.43 | E 5.45 | C 4.47 | A 5.48 | H 4.5 | Q 5.21 | T 4.45 | V 4.63 | I 5.07 | K 5.01 | R 4.7
A15: H 5.18 | W 4.49 | V 5.17 | P 5.46 | D 5.39 | L 5.02 | I 4.48 | C 1.34 | F 4.87 | M 4.55 | G 4.34 | K 5.44 | R 5.03 | N 4.55 | E 5.18 | T 3.68 | Y 4.12 | S 3 | Q 4.9

— the supplement of paper PMC10567573
